# Numbering of substitutions follows the chain as printed.
# B1: PRT-290 (protein)
# chain: MVTSVWTKGVTPPADFTQGEDVFHAPYVANQGWYDITKTFNGKDDLLCGAATAGNMLHWWFDQNKEYIEAYLKKHPEKQKIMFGDQELLDVRKAINTKGSQKNSELFNYFRDKAFPNLSARRLGVMPDLVLDMFINGYYLNVTKTQTTDVNRTYQEKDKRGGIFDAVFTRGDQSKLLTSRHDFKEKGLKEISDLIKQELTEGKALGLSHTYANVRIGHVINLWGADFDSDGNLKAIYVTDSDSNASIGMKKYFVGVNSSGKVAISAKEIKEDNIGAQVLGLFTLSTGQDIWNQTN
# B2: PRT-298 (protein)
# chain: B1 chain with A14T, T17I, Q18K, V28K, N30G, R215G, G217N
# B3: PRT-306 (protein)
# chain: B1 chain with A14T, T17I, Q18K, V28D, N30G, T39E, F253G, S259A
# B4: PRT-24 (protein)
# chain: MANQEIRYSEVTPYHVTSVWTKGVTPPANFTQGEDVFHAPYVANQGWYDITKTFNGKDDLLCGAATAGNMLHWWFDQNKDQIERYLKEHPEKQKINFNGEQMFDVKEAIDTKDSQTDSKLFEYFKEKAFPYLSTKHLGVFPDHVLDMFINGYRLSLTNHGPTPVKEGSKDPRGGIFDAVFTRGDQSKLLTSRHDFKEKTLKEISDLIKKELTEGKALGLSHTYANVRINHVINLWGADFDSNGNLKAIYVTDSDSNASIGMKKYFVGVNSAGKVAISAKEIKEDNIGAQVLGLFTLSTGQDIWNQTN
# B5: PRT-27 (protein)
# chain: B4 chain with E83K, K87E, D113N, S114H, L145I, T199N, K246E, I302S
# B6: PRT-26 (protein)
# chain: B4 chain with K209Q, N242E
# B7: PRT-25 (protein)
# chain: B4 chain with L145I, T199N, K209Q, K246E, K282E
# B8: PRT-321 (protein)
# chain: MTITSVWTKGVTPPTPEDFRENNEDVLHAPYVANQGWYDITKTFDGKDNLLCGAATAGNMLHWWFDQNKEEIERYLKKHPEKQKIIFGNQELFDVKAAIDTKDSQTNSKLFDYFRDKAFPNLSARQLGVMPDLVLDMFINGYYLNLPKTQSTDVNRPYQDKDKRGGIFDAVFTRGDQTTLLTARHDLKNKGLNEISDLIKQELTEGKALALSHTYANVRINHVINLWGADFDAEGNLIAIYVTDSDANASIGMKKYAVGVNANGKVAISAKKIEGDNIGAQVLGLFTLSTGQDQWQKLS
# B9: PRT-322 (protein)
# chain: B8 chain with G88N, P147G, A257F, V260R
# B10: PRT-329 (protein)
# chain: B8 chain with G88N, D112N, N121G, M130F, P147G, D176V, A257F, V260R, T290L, Q294I
# B11: PRT-330 (protein)
# chain: B8 chain with N121G, M130F, P147G, D176V, A257F, V260R
# B12: PRT-250 (protein)
# chain: MVTSVWTKGVTPPTNFTYGEDVLHAPYVANQGWYDITKLFNGKDDLLCGAATAGNMLHWWFDQNKEQIENYLKKHPEKQKINFNGEQMFDVKEAIDTKDSQLDSKLFDYFKEKAFPNLSTKHLGVFPDHVIDMFINGYRLSLLNHGPTPVKRGSKDPRGGIFDAVFTRGDQSKLLTNRHDFKEKTLKEISDLIKQELTEGKALGISHTYANGRINHVINLWGADFDAEGNLEAIYVTDSDSNPSIGMKKYFVGVNSSGKVAISAKEIEEDNIGAQVLGLFTLSTGQDIWNQTN
# B13: PRT-266 (protein)
# chain: B12 chain with N15D, T17I, V28K, N30G, L39T, D108E, F181L, E183N, G212V, P243A
# B14: PRT-258 (protein)
# chain: B12 chain with D108E, K111L, N117Y, L143T, G212V, Y235A, P243A
# B15: PRT-274 (protein)
# chain: MVTSVWTKGVTPPTDFIYGEDVLHAPYKAGQGWYDITKTFNGKDNLLCGAATAGNMLHWWFDQNKEQIENYLKKHPEKQKIIFNNQELFDLKAAIDTKDSQLDSKLFDYFKEKAFPNLSTKHLGVFPDHVIDMFINGYRLSLLNHGPTPVKRGSKDKRGGIFDAVFTRGVQSKLLTNRHDLKNKTLKEISDLIKQELTEGKALGISHTYANVRINHVINLWGADFDAEGNLEAIYVTDSDTNPSIGMKKYFVGVNSSGKVAISAKEIEEDNIGAQVLGLFTLSTGQDIWNQTN
# B16: PRT-242 (protein)
# chain: MVTSVWTKGVTPPANFTQGEDVFHAPYVANQGWYDITKTFNGKDDLLCGAATAGNMLHWWFDQNKDQIKRYLEEHPEKQKINFNGEQMFDVKEAIDTKNHQLDSKLFDYFKEKAFPNLSTKHLGVFPDHVIDMFINGYRLSLLNHGPTPVKEGSKDPRGGIFDAVFTRGDQSKLLTSRHDFKEKNLKEISDLIKKELTEGKALGLSHTYANVRINHVINLWGADFDSNGNLKAIYVTDSDSNPSIGMKKYFVGVNSSGKVAISAKEIKEDNIGAQVLGLFTLSTGQDSWNQTN
# B17: PRT-314 (protein)
# chain: MQITSVWTKGVTPLTPEQFRENNEDVIHAPYLAHQGWYDITKAFDGKDNLLCGAATAGNMLHWWFDQNKTEIEAYLSKHPEKQKIIFGNQELFDLKAAIDTKDSQTNSQLFDYFRDKAFPNLSARQLGVMPDLVLDMFINGYYLNVGKTQSTDVNRPYQDKDKRGGIFDAVFTRGDQTTLLTARHDLKNKGLNDISTIIKQELTEGRALALSHTYANVSISHVINLWGADFNAEGELEAIYVTDSDANPSIGMKKYFVGRNAHGHVAISAKKIEGENIGAQVLGLFTLSSGKDQWQKLS
# B18: PRT-282 (protein)
# chain: MVTSVWTKGVTPPAKFTQGEDVFHAPYVANQGWYDITKTFNGKDDLLCGAATAGNMLHWWFDQNKEKIEAYLKKHPDKQKIMFGDQELLDVRKVINTKGDQTNSELFNYFRDKAFPNLSARRIGVMPDLVLDMFINGYYLNVYKTQTTDVNRTYQEKDRRGGIFDAVFTRGDQSKLLTSRHDFKEKNLKEISDLIKKELTEGKALGLSHTYANVRLNHVINLWGADFDSNGNLKAIYVTDSDSNASIGMKKYFVGVNSSGKVAISAKEIKEDNIGAQVLGLFTLSTGQDSWNQTN
# Target: pooled human IgG
Protein,Enzyme Activity Endpoint Assay (purified): Fab'2 [ng/µL],Enzyme Activity Endpoint Assay (purified): Fc [ng/µL],Enzyme Activity Endpoint Assay (purified): IgG [ng/µL],Enzyme Activity Endpoint Assay (purified): scIgG [ng/µL],Enzyme Activity Endpoint Assay: Fab′2 [ng/µL],Enzyme Activity Endpoint Assay: Fc [ng/µL],Enzyme Activity Endpoint Assay: IgG [ng/µL],Enzyme Activity Endpoint Assay: scIgG [ng/µL]
B1,191,151,179,0,,,,
B2,494,240,147,35,,,,
B3,467,336,341,0,,,,
B4,,,,,52,131,18,16
B5,,,,,44,112,14,13
B6,,,,,40,101,11,14
B7,,,,,56,123,20,0
B8,469,337,139,214,,,,
B9,506,381,387,0,,,,
B10,928,406,0,0,,,,
B11,493,369,352,0,,,,
B12,313,310,86,454,,,,
B13,698,401,0,0,,,,
B14,762,425,0,0,,,,
B15,1040,425,0,0,,,,
B16,1030,418,0,0,,,,
B17,599,286,101,174,,,,
B18,69,150,34,413,,,,
